Measured values taken from paper PMC10149931, “Wiskott-Aldrich syndrome protein interacts and inhibits diacylglycerol kinase alpha promoting IL-2 induction” (Frontiers in Immunology, 2023).

Biological target: myc-DGKα (UniProt P23743 1-735)
Assay: cell-based or functional assay

myc-DGKα, sequence (P23743 whole entry): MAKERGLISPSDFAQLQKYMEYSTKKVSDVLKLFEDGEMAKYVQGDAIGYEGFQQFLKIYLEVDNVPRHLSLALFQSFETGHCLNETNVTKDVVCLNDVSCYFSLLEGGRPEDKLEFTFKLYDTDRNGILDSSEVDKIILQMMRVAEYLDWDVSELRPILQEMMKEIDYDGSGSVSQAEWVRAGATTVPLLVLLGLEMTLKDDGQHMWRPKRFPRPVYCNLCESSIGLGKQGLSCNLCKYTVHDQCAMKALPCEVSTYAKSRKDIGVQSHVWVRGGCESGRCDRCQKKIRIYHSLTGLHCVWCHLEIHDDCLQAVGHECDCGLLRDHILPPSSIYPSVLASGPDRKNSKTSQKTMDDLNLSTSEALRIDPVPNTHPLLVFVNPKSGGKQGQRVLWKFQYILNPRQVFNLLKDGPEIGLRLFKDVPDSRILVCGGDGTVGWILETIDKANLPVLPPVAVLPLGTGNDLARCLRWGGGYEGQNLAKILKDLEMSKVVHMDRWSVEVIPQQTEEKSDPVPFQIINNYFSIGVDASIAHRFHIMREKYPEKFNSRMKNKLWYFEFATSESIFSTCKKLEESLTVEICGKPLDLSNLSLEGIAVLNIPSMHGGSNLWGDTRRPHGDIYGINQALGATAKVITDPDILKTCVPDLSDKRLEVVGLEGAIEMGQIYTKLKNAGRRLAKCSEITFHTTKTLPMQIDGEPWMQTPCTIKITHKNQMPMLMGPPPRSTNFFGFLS

- decrease in DGK activity of total homogenates of 293T cells co-transfected with myc-DGKα and FLAG-WASp, against myc-DGKα with GFP control vector: ~50%
B1: FLAG-WASp (natural protein, UniProt P42768 1-502, looked up)
chain: MSGGPMGGRPGGRGAPAVQQNIPSTLLQDHENQRLFEMLGRKCLTLATAVVQLYLALPPGAEHWTKEHCGAVCFVKDNPQKSYFIRLYGLQAGRLLWEQELYSQLVYSTPTPFFHTFAGDDCQAGLNFADEDEAQAFRALVQEKIQKRNQRQSGDRRQLPPPPTPANEERRGGLPPLPLHPGGDQGGPPVGPLSLGLATVDIQNPDITSSRYRGLPAPGPSPADKKRSGKKKISKADIGAPSGFKHVSHVGWDPQNGFDVNNLDPDLRSLFSRAGISEAQLTDAETSKLIYDFIEDQGGLEAVRQEMRRQEPLPPPPPPSRGGNQLPRPPIVGGNKGRSGPLPPVPLGIAPPPPTPRGPPPPGRGGPPPPPPPATGRSGPLPPPPPGAGGPPMPPPPPPPPPPPSSGNGPAPPPLPPALVPAGGLAPGGGRGALLDQIRQGIQLNKTPGAPESSALQPPPQSSEGLVGALMHVMQKRSRAIHSSDEGEDQAGDEDEDDEWDD
